Experiment [1] addresses IpaD (invasion plasmid antigen D) (Shigella flexneri, UniProt P18013). Description: fluorescence polarization, single site saturation fit. The following applies: read-out: Kd (μM) ± SD ^a; labelled compound; 25 nM FITC-DOC, 0-30 μM IpaD, PBS, 23 °C, 30 min. It is filed as binding.
For experiment [2], the target named is IpaB^28–226-Alexa568 (Shigella flexneri). Description: fluorescence polarisation.
Experiment [3] has the same target. In words: fluorescence polarisation. The source holds these as a separate data set. A general note: Polarisation of emitted light reports the rotation of a fluorescent probe.

Read-outs that look alike come from different tables or passages of the source.

For orientation: Kd means the concentration at which binding is half-saturated. In the case of FITC-deoxycholate, the Kd in experiment [1] came out at 9.3 ± 1.8 µM.

With “IpaD D144A/N146A/Y149A triple mutant (from UniProt P18013 1-332) (natural protein)”, the Kd came out at 7400 nM in experiment [2] and 2200 nM in experiment [3].

Consider “IpaD Y149A (from UniProt P18013 1-332) (natural protein)”, for which the Kd in experiment [3] is 500 nM.

For the substance “Wild-type IpaD (invasion plasmid antigen D) (from UniProt P18013 1-332) (natural protein)”, the Kd in experiment [3] was 2000 nM.

Source of the values: paper PMC5761661 (Biochemistry, 2017).
